The values that follow come from patent US20060182736.

Holding throughout (assay): cell_activity
The test system of data set [1] is TAT-F435-KRAB/KOX (QSHR2-RDHT-RSHR) (artificial). The settings on record: +/-0.35, VEGF mRNA, 293 cells; protein 2.7 fold; H460 3.8 fold at 12 h (p247).
The subject of data set [2] is TAT-F435-p65 (QSHR2-RDHT-RSHR) (artificial). Particulars: +/-0.5, secreted VEGF at 48 h, 293 cells, lysate.
Data set [3] relates to TAT-F121-KRAB (QSHT-RSHR-RDHT) (artificial). Particulars: 293 cells.
Data set [4] relates to TAT-F475-KRAB (QSHR2-RDHT-RSNR) (artificial).
Data set [5] has as its system TAT-F475-p65 (QSHR2-RDHT-RSNR) (artificial). The settings on record: +/-0.48, 293 cells.

Sequence of TAT-F121-KRAB (QSHT-RSHR-RDHT) (artificial) (chain, as listed by the source): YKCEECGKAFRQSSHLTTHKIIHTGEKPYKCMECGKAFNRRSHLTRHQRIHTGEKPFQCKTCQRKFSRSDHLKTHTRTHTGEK
Sequence of TAT-F475-KRAB (QSHR2-RDHT-RSNR) (artificial) (chain, as listed by the source): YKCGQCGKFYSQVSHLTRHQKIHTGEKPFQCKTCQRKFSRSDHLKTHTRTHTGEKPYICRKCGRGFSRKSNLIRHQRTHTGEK
Sequence of TAT-F435-p65 (QSHR2-RDHT-RSHR) (artificial) (chain, as listed by the source): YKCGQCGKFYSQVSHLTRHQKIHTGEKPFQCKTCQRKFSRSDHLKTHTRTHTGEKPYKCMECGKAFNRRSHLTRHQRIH

As for endogenous VEGF-A gene, the activity (fold repression) came to 3.1 in data set [1]; 1.7 in data set [3] (+/-0.01, VEGF mRNA, lysate); 3.1 in data set [4] (+/-0.4, VEGF mRNA, 293 cells). The substance also displayed an activity (fold activation) in data set [2] of 2.5.

As for “native human VEGF promoter in pGL3-basic luciferase reporter”, in data set [5], the activity (fold activation) worked out at 2.5. Besides, the activity (fold repression) was determined as 2.1 in data set [3] (+/-0.14, purified protein) and 2 in data set [4] (80 ug lysate, HEK293, 1.5 fold at 40 ug, vs TAT-only).
